Source: US20260242735A1

Tests used:
Experiment in all cases: flow cytometry, HEK293-T, alanine scan
[1] = biological target: human CD33 A272S (human) (UniProt P20138)
[2] = biological target: human CD33 A289S (human) (UniProt P20138)
[3] = biological target: human CD33 A290S (human) (UniProt P20138)
[4] = biological target: human CD33 A293S (human) (UniProt P20138)
[5] = biological target: human CD33 A328S (human) (UniProt P20138)
[6] = biological target: human CD33 A329S (human) (UniProt P20138)
[7] = biological target: human CD33 A341S (human) (UniProt P20138)
[8] = biological target: human CD33 C274A (human) (UniProt P20138)
Chain of human CD33 C274A (human) (P20138 18-364 C274A limits assumed): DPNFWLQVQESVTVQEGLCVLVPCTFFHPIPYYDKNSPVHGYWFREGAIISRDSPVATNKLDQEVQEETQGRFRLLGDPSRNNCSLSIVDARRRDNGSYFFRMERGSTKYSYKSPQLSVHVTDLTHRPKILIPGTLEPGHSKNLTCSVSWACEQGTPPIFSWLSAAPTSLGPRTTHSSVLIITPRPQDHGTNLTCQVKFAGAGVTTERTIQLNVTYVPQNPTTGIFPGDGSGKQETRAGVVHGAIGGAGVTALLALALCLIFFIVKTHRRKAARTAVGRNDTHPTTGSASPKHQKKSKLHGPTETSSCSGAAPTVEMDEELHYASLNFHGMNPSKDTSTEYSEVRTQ

[9] = biological target: human CD33 C325A (human) (UniProt P20138)
[10] = biological target: human CD33 D298A (human) (UniProt P20138)
[11] = biological target: human CD33 E321A (human) (UniProt P20138)
[12] = biological target: human CD33 E333A (human) (UniProt P20138)
[13] = biological target: human CD33 E336A (human) (UniProt P20138)
[14] = biological target: human CD33 E337A (human) (UniProt P20138)
[15] = biological target: human CD33 F280A (human) (UniProt P20138)
[16] = biological target: human CD33 F345A (human) (UniProt P20138)
Chain of human CD33 F345A (human) (P20138 18-364 F345A limits assumed): as the sequence (P20138 18-364 C274A limits assumed) above, with A257C, F328A counted along it

[17] = biological target: human CD33 G295A (human) (UniProt P20138)
[18] = biological target: human CD33 G304A (human) (UniProt P20138)
[19] = biological target: human CD33 H285A (human) (UniProt P20138)
[20] = biological target: human CD33 H310A (human) (UniProt P20138)
[21] = biological target: human CD33 H317A (human) (UniProt P20138)
[22] = biological target: human CD33 H339A (human) (UniProt P20138)
[23] = biological target: human CD33 I278A (human) (UniProt P20138)
Chain of human CD33 I278A (human) (P20138 18-364 I278A limits assumed): as the sequence (P20138 18-364 C274A limits assumed) above, with A257C, I261A counted along it

[24] = biological target: human CD33 I281A (human) (UniProt P20138)
[25] = biological target: human CD33 K283A (human) (UniProt P20138)
[26] = biological target: human CD33 K309A (human) (UniProt P20138)
[27] = biological target: human CD33 K312A (human) (UniProt P20138)
[28] = biological target: human CD33 K315A (human) (UniProt P20138)
[29] = biological target: human CD33 L271A (human) (UniProt P20138)
[30] = biological target: human CD33 L273A (human) (UniProt P20138)
Chain of human CD33 L273A (human) (P20138 18-364 L273A limits assumed): as the sequence (P20138 18-364 C274A limits assumed) above, with L256A, A257C counted along it

[31] = biological target: human CD33 L277A (human) (UniProt P20138)
[32] = biological target: human CD33 L338A (human) (UniProt P20138)
[33] = biological target: human CD33 L343A (human) (UniProt P20138)
Chain of human CD33 L343A (human) (P20138 18-364 L343A limits assumed): as the sequence (P20138 18-364 C274A limits assumed) above, with A257C, L326A counted along it

[34] = biological target: human CD33 M334A (human) (UniProt P20138)
Chain of human CD33 M334A (human) (P20138 18-364 M334A limits assumed): as the sequence (P20138 18-364 C274A limits assumed) above, with A257C, M317A counted along it

[35] = biological target: human CD33 N344A (human) (UniProt P20138)
[36] = biological target: human CD33 R291A (human) (UniProt P20138)
Chain of human CD33 R291A (human) (P20138 18-364 R291A limits assumed): as the sequence (P20138 18-364 C274A limits assumed) above, with A257C, R274A counted along it

[37] = biological target: human CD33 S305A (human) (UniProt P20138)
Chain of human CD33 S305A (human) (P20138 18-364 S305A limits assumed): as the sequence (P20138 18-364 C274A limits assumed) above, with A257C, S288A counted along it

[38] = biological target: human CD33 S324A (human) (UniProt P20138)
[39] = biological target: human CD33 S326A (human) (UniProt P20138)
[40] = biological target: human CD33 T292A (human) (UniProt P20138)
Chain of human CD33 T292A (human) (P20138 18-364 T292A limits assumed): as the sequence (P20138 18-364 C274A limits assumed) above, with A257C, T275A counted along it

[41] = biological target: human CD33 T299A (human) (UniProt P20138)
[42] = biological target: human CD33 T303A (human) (UniProt P20138)
[43] = biological target: human CD33 T320A (human) (UniProt P20138)
Chain of human CD33 T320A (human) (P20138 18-364 T320A limits assumed): as the sequence (P20138 18-364 C274A limits assumed) above, with A257C, T303A counted along it

[44] = biological target: human CD33 T331A (human) (UniProt P20138)
[45] = biological target: human CD33 V294A (human) (UniProt P20138)
Chain of human CD33 V294A (human) (P20138 18-364 V294A limits assumed): as the sequence (P20138 18-364 C274A limits assumed) above, with A257C, V277A counted along it

[46] = biological target: human CD33 V332A (human) (UniProt P20138)

Chain of human CD33 A290S (human) (P20138 18-364 A290S limits assumed): as the sequence (P20138 18-364 C274A limits assumed) above, with A257C, A273S counted along it
Chain of human CD33 A293S (human) (P20138 18-364 A293S limits assumed): as the sequence (P20138 18-364 C274A limits assumed) above, with A257C, A276S counted along it
Chain of human CD33 A272S (human) (P20138 18-364 A272S limits assumed): as the sequence (P20138 18-364 C274A limits assumed) above, with A255S, A257C counted along it

## Refmab #7 (WM53) (antibody)
[1]
  Mean % WT Binding: 113 % WT binding
[2]
  Mean % WT Binding: 107 % WT binding
[3]
  Mean % WT Binding: 98 % WT binding
[4]
  Mean % WT Binding: 120 % WT binding
[5]
  Mean % WT Binding: 119 % WT binding
[6]
  Mean % WT Binding: 120 % WT binding
[7]
  Mean % WT Binding: 95 % WT binding
[8]
  Mean % WT Binding: 102 % WT binding
[9]
  Mean % WT Binding: 101 % WT binding
[10]
  Mean % WT Binding: 86.5 % WT binding
[11]
  Mean % WT Binding: 109 % WT binding
[12]
  Mean % WT Binding: 91 % WT binding
[13]
  Mean % WT Binding: 98.4 % WT binding
[14]
  Mean % WT Binding: 102 % WT binding
[15]
  Mean % WT Binding: 104 % WT binding
[16]
  Mean % WT Binding: 140 % WT binding
[17]
  Mean % WT Binding: 115 % WT binding
[18]
  Mean % WT Binding: 103 % WT binding
[19]
  Mean % WT Binding: 109 % WT binding
[20]
  Mean % WT Binding: 90.4 % WT binding
[21]
  Mean % WT Binding: 112 % WT binding
[22]
  Mean % WT Binding: 133 % WT binding
[23]
  Mean % WT Binding: 93.2 % WT binding
[24]
  Mean % WT Binding: 110 % WT binding
[25]
  Mean % WT Binding: 117 % WT binding
[26]
  Mean % WT Binding: 93.6 % WT binding
[27]
  Mean % WT Binding: 101 % WT binding
[28]
  Mean % WT Binding: 112 % WT binding
[29]
  Mean % WT Binding: 113 % WT binding
[30]
  Mean % WT Binding: 92.5 % WT binding
[31]
  Mean % WT Binding: 92 % WT binding
[32]
  Mean % WT Binding: 124 % WT binding
[33]
  Mean % WT Binding: 96.2 % WT binding
[34]
  Mean % WT Binding: 93.9 % WT binding
[35]
  Mean % WT Binding: 108 % WT binding
[36]
  Mean % WT Binding: 120 % WT binding
[37]
  Mean % WT Binding: 106 % WT binding
[38]
  Mean % WT Binding: 99.2 % WT binding
[39]
  Mean % WT Binding: 103 % WT binding
[40]
  Mean % WT Binding: 119 % WT binding
[41]
  Mean % WT Binding: 109 % WT binding
[42]
  Mean % WT Binding: 77.1 % WT binding
[43]
  Mean % WT Binding: 117 % WT binding
[44]
  Mean % WT Binding: 108 % WT binding
[45]
  Mean % WT Binding: 126 % WT binding
[46]
  Mean % WT Binding: 112 % WT binding
